Assay results as given in patent US20250270315A1 (ELPISCIENCE SUZHOU BIOPHARMA, published 2025).

Experiments:
[1] = molecular target: Human SIRPα v1 (antigen of the Octet and Biacore affinity measurements) (human, UniProt P78324 31-370, limits assumed); test: BLI (Octet), 1:1 binding model
Method: The purified chimeric antibodies were characterized for binding affinity against human SIRPα v1, human SIRPα v2 using Bio-Layer Interferometry technology (Octet system). The association and dissociation curves were fit with 1:1 binding model, and the Ka/Kd/KD values for each antibody were calculated.

[2] = molecular target: T1, C57BL/6 mouse SIRPα ECD recombinant protein (6×His tagged) (C57BL/6 mouse, UniProt P97797 32-373); test: ELISA, recombinant C57BL/6 mouse SIRPα ECD
T1 construct: extracellular domain; Bought from Biointron; not shown: 6×His tag
T1 sequence (looked up): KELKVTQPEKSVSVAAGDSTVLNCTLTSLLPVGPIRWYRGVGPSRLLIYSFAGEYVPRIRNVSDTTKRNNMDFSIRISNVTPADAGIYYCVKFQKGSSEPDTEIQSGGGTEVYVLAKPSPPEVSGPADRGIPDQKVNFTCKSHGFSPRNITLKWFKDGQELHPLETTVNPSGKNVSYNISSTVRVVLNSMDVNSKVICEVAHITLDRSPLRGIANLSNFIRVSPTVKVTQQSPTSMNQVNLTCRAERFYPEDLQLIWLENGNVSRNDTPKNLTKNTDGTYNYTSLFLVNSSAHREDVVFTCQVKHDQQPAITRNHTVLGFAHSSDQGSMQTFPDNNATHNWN
Source text: Species cross reactivity of purified chimeric antibodies was detected by ELISA assay using recombinant protein of C57BL/6 mouse SIRPα ECD (FIG. 5A) and FACS assay using CHOK 1 cells stably expressing cyno SIRPα (FIGS. 5B and 5C). All antibodies as tested bind to cyno SIRPα at different levels but have no species cross reactivity against C57BL/6 mouse SIRPα.

[3] = molecular target: T2, human SIRPγ stably expressed on 293F cells (human, UniProt Q9P1W8 29-387); test: FACS, 293F-human SIRPγ cells
T2 construct: whole, on cells

[4] = molecular target: T3, human SIRPβ ECD recombinant protein (6×His tagged) (human, UniProt O00241 30-371); test: ELISA, hSIRPβ ECD
T3 construct: extracellular domain; Bought from Sino Biological; also called hSIRPβ ECD; not shown: 6×His tag
Source text: (§1) Binding activity of the purified chimeric antibodies against SIRPβ and SIRPBI was detected by ELISA assay using recombinant proteins of human SIRPβ ECD (FIGS. 3A and 3B), human SIRPBI ECD (FIGS. 3D and 3E) and FACS assay using CHOK 1 cells stably expressing human SIRPB (FIG. 3C).

[5] = molecular target: T4, full length human SIRPα v1 stably expressed on CHOK1 or 293F cells (human, UniProt P78324 31-504); test: FACS, CHOK1-hSIRPα v1 cells
T4 construct: whole, on cells; also called CHOK1-human SIRPα v1; CHOK1-hSIRPα v1

[6] = molecular target: T5, human SIRPα v2 ECD recombinant protein (tag not given) (human); test: competitive ELISA, mFc-CD47 ECD on coated SIRPα v2 ECD
T5 construct: extracellular domain; also called ELISA microplate coated human SIRPα v2 ECD
Method: (§2) Competitive ELISA assay was used to determine whether the purified chimeric antibodies can block CD47 and SIRPα interaction. Briefly, antibody and mFc tagged human CD47 ECD recombinant protein were co-incubated with ELISA microplate coated human SIRPα v1 ECD (FIGS. 6A and 6B) or human SIRPα v2 ECD (FIGS. 7A and 7B) recombinant protein. After washing, HRP labeled anti-mouse Fc 2nd antibody (Sigma) was added and incubated at 37° C. for 1 hour. Then, 100 μl/well of TMB solution (Biotechnology) was added. After incubation for 15 minutes at room temperature, the reaction was stopped by the addition of 50 μl of 1N HCl. OD 450 nm was read. Blocking ratio was determined by blockade of human CD47 ECD recombinant protein binding to ELISA microplate coated human SIRPα ECD recombinant protein. Other than 005, all antibodies as tested can block interaction between human CD47 and different human SIRPα variants.

[7] = molecular target: full length human SIRPα v1 with a small beta-gal fragment (ED) fused to its C-terminal, expressed in K562 … (human, UniProt P78324 31-504); test: cell-based or functional assay
[8] = molecular target: T6, human SIRPα v1 ECD recombinant protein (tag not given) (human, UniProt P78324 31-373); test: competitive ELISA, mFc-CD47 ECD on coated SIRPα v1 ECD
T6 construct: extracellular domain; also called biotin labeled soluble human SIRPα v1 ECD recombinant protein; ELISA microplate coated human SIRPα v1 ECD
Method: as §2

[9] = molecular target: T7, human SIRPβL ECD recombinant protein (6×His tagged) (human, UniProt Q5TFQ8 30-371); test: ELISA, hSIRPβI ECD
T7 construct: given variously as SIRPBL, SIRPBI and SIRPβI; Bought from Biointron; also called human SIRPBL ECD; human SIRPBI ECD
Source text: as §1

[10] = molecular target: T8, mFc tagged human SIRPα v1 ECD recombinant protein (human, UniProt P78324 31-373); test: competitive ELISA binning, mFc-SIRPα v1 ECD; competitor 042c
T8 construct: extracellular domain; Bought from Biointron; not shown: mouse IgG Fc (mFc) tag
Method: (§3) Competitive ELISA assay was used for epitope binning of purified chimeric antibodies. Briefly excessive competitor antibody and mFc tagged human SIRPα v1 ECD recombinant protein were co-incubated with ELISA microplate coated antibody. After washing, HRP labeled anti-mouse Fc 2nd antibody (Sigma) was added and incubated at 37° C. for 1 hour. Then, 100 μl/well of TMB solution (Biotechnology) was added. After incubation for 15 minutes at room temperature, the reaction was stopped by the addition of 50 μl of 1N HCl. OD 450 nm was read. Competition ratio was calculated. The antibodies that can compete each other for binding to SIRPα may have related binding epitopes.

[11] = molecular target: T8, mFc tagged human SIRPα v1 ECD …; test: competitive ELISA binning, mFc-SIRPα v1 ECD; competitor 025c
Method: as §3

[12] = molecular target: T9, human SIRPβ stably expressed on CHOK1 cells (human, UniProt O00241 30-398); test: FACS, CHOK1-hSIRPβ cells
T9 construct: whole, on cells; also called CHOK1-human SIRPB; CHOK1-hSIRPβ
Source text: as §1

[13] = molecular target: T10, cyno SIRPγ ECD recombinant protein (cyno); test: ELISA, cyno SIRPγ ECD
T10 construct: extracellular domain

[14] = molecular target: T8, mFc tagged human SIRPα v1 ECD …; test: competitive ELISA binning, mFc-SIRPα v1 ECD; competitor hu1H9G4
Method: as §3

[15] = molecular target: T4, full length human SIRPα v1 stably …; test: competitive FACS, mFc-CD47 ECD on CHOK1-human SIRPα v1 cells
Method: Competitive FACS assay was also set up to further compare the blocking activity of the humanized antibodies and reference antibodies. Briefly antibody and mFc tagged human CD47 ECD recombinant protein were co-incubated with CHOK1 cells stably expressing human SIRPα v1 (FIG. 16A) or human SIRPα v2 (FIG. 16B). After washing, dye labeled anti-mouse Fc 2nd antibody (Sigma) was added and incubated at 37° C. for 1 hour. Fluorescence intensity was detected. Blocking ratio was determined by blockade of human CD47 ECD recombinant protein binding to SIRPα expressed CHOK1 cells. […] In particular, HEFLB doesn't work at all for human SIRPα v2.

T3 sequence (O00241 30-371): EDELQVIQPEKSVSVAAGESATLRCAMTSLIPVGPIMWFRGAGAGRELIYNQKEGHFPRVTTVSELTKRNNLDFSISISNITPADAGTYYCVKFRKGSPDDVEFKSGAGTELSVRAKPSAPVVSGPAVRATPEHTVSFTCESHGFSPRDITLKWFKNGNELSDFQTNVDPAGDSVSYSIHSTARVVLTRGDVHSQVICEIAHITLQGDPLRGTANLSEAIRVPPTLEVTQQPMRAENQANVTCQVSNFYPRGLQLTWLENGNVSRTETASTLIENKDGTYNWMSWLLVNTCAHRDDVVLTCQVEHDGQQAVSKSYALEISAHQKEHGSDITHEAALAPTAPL
T7 sequence (Q5TFQ8 30-371 limits assumed): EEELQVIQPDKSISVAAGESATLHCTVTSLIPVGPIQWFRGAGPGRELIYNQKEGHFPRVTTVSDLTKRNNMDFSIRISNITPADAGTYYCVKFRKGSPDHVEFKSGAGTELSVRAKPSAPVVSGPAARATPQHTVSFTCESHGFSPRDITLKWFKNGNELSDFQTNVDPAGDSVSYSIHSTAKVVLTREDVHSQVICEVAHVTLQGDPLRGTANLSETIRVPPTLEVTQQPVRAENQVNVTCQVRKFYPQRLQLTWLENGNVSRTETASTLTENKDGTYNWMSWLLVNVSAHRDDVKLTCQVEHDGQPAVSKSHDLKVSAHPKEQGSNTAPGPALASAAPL
T6 sequence (P78324 31-373): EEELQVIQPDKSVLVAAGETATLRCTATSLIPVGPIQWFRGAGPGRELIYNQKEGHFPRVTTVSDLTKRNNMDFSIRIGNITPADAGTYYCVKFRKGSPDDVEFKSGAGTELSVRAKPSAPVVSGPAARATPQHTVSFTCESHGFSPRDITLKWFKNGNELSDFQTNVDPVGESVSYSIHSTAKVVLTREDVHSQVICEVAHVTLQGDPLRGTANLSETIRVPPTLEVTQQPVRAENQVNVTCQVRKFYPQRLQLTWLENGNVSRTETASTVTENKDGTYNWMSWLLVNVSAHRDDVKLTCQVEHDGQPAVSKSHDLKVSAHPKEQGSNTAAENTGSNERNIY
T8 sequence (P78324 31-373): as above
T9 sequence (O00241 30-398): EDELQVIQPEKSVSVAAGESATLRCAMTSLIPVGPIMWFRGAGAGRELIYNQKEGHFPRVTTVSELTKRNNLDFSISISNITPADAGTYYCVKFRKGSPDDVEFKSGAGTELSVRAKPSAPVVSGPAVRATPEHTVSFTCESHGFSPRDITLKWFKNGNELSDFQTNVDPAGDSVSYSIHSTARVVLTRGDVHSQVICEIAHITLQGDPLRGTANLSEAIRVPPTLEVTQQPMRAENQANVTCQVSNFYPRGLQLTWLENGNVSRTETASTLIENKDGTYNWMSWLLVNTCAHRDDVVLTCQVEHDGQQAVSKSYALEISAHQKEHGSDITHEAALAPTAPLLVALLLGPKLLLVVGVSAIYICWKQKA
T2 sequence (Q9P1W8 29-387): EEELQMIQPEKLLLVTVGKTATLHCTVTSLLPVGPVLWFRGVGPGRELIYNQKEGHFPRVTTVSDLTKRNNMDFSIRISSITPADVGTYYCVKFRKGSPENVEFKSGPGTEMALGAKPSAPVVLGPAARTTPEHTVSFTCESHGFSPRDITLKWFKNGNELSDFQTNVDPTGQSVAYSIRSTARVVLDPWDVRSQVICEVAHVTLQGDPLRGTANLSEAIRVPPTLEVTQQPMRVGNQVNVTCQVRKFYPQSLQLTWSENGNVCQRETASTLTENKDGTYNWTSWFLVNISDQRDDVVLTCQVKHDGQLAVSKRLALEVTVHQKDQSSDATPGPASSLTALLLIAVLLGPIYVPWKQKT
T4 sequence (P78324 31-504): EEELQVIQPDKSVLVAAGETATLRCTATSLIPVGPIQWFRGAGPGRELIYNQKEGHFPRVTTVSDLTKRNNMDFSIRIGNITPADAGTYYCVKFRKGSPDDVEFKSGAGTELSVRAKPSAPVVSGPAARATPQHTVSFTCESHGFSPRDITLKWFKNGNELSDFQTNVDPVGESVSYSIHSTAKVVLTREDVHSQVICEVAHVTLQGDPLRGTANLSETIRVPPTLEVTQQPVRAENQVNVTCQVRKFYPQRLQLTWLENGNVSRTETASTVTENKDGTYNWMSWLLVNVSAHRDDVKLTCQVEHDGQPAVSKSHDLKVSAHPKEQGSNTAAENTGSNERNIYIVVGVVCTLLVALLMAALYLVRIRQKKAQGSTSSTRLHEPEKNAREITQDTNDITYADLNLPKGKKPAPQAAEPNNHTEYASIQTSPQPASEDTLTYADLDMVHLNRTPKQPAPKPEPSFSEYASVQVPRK
Sequence of full length human SIRPα v1 with a small beta-gal fragment (ED) fused to its C-terminal, expressed in K562 … (P78324 31-504): as above
Sequence of Human SIRPα v1 (antigen of the Octet and Biacore affinity measurements) (P78324 31-370 limits assumed): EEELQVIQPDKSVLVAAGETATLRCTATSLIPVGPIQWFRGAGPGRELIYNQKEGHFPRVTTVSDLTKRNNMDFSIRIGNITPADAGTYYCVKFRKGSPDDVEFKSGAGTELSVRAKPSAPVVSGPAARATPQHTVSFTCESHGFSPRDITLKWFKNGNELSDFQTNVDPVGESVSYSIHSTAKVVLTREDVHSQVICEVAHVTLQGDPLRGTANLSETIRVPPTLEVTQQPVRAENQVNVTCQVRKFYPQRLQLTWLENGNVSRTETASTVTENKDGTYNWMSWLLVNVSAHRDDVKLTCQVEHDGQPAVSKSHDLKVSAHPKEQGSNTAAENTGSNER

Binder | Kd [1] [nM] | koff [1] [s⁻¹] | kon [1] [M⁻¹ s⁻¹] | binding result [2] | EC50 [3] [nM] | TOP MFI [3] [MFI] | EC50 [4] [nM] | TOP OD450 [4] [OD450] | EC50 [5] [nM] | TOP MFI [5] [MFI] | IC50 [6] [nM] | TOP blocking (%) [6] [%] | SHP-1 recruitment blocking, IC50 [7] [nM] | SHP-1 recruitment blocking, TOP blocking (%) [7] [%] | IC50 [8] [nM] | TOP blocking (%) [8] [%] | EC50 [9] [nM] | TOP OD450 [9] [OD450] | % Competition [10] [%] | % Competition [11] [%] | further results
059c (antibody, V domains shown, also called chimeric antibody 059c) VH: QVQLQQSGPELVKPGASVKMSCKASGYTFSEYVLSWVKQRTGQGLEWIGEIYPGTITTYYNEKFKGKATLTADKSSNTAYIQLTSLTSEDSAVYFCGRFYDYDGGWFAYWGQGTLLTVSA VL: ENVLTQSPEKMAVSLGQKVTMTCSASSSVSSSDLHWYQQKSGASPKPLIHGTSNLASGVPARFSGSGSGTSYSLTISSVEAEDAATYYCQQWSGYPWTFGGGTNLEIK | 2.25 | 0.00213 | 944000 | no binding | 34.1 | 2860 | 0.03 | 2.75 | 1.45 | 69800 | 54.1 | 84.4 | 0.07 | 66.9 | 2.63 | 97 | 0.7 | 3.35 | – | – | –
042c (antibody, V domains shown, also called chimeric antibody 042c) VH: QIQLVQSGPELKKPGETVKISCRASGYTFTTYGMSWVKQAPGKGLRWMGWINTYSGVSTCADDFKGRFAFSLETSATTAYLQIHNLTNEDTATYFCARDPHSYGNSPAWFPYWGQGTLVTVSA VL: DIVMTQSQKFMSTTIRDRVSITCKASQNVGISVAWYQQKSGQSPKLLIYSASNRYTGVPDRFTGSGSGTDFTLTISNMQSEDLADYFCQQYSSYPLTFGSGTKLAIK | 9.2 | 0.00545 | 593000 | no binding | – | – | 0.23 | 3.23 | 1.9 | 73200 | 4.49 | 94.6 | 0.99 | 70 | 3.6 | 97.1 | 0.39 | 2.69 | 93.9 | 8.9 | EC50 [12]: 39.8 nM; TOP MFI [12]: 3910 MFI; EC50 [13]: 20.5 nM; TOP OD450 [13]: 1.22 OD450; % Competition [14]: 29.8%
071c (antibody, V domains shown, also called chimeric antibody 071c) VH: QIQLVQSGPELKKPGETVKISCKASGYTFTTYGMSWVKQAPGKGLKWMVWINTYSGVPTYADDFQGRFAFSLETSASTSYLQINNLRNEDTATYFCARDPHYYGTSPAWFAYWGQGTLVTVSA VL: DIVMTQSQKFMSTTIGDRVIITCKASQIVGIAVAWYQQKPGQSPKLLIYSASNRFTGVPDRFTGSGSGTDFTLTISNMQSEDLADYFCQQYSTYPFTFGSGTKLEIK | 5.97 | 0.00327 | 548000 | no binding | – | – | 1.53 | 2.98 | 2.6 | 76500 | 5.1 | 76.3 | 2.97 | 44.5 | 2.86 | 94.1 | 0.3 | 2.66 | – | – | –
015c (antibody, V domains shown, also called chimeric antibody 015c) VH: EVQLQQSGVEVVQPGASVKLSCTASGFNIEAYYMHWVKQRTEQGLEWIGRIDPEDGESKYAPKFQGKATMTADTSSSTAYLQLSSLTSDDTAVYYCVRGSYEYWGQGTTLTVSS VL: QIVLTQSPAIMSASPGEKVTLTCSASSSVSSSYLYWYQQKPGSSPKLWIYSTSNLASGVPPRFSGSGSGTSYSLTISSMQAEDAASYFCYQWSSYPYTFGGGTKLEIK | 0.338 | 0.000303 | 897000 | no binding | 0.09 | 3300 | 0.04 | 2.97 | 1.49 | 80000 | 2.45 | 96.7 | 0.09 | 73.5 | 2.32 | 96.4 | 0.4 | 3.1 | – | – | –
hu1H9G4 (antibody, V domains shown) VH: QVQLVQSGAEVKKPGASVKVSCKASGYTFTSYWITWVKQAPGQGLEWIGDIYPGSGSTNHIEKFKSKATLTVDTSISTAYMELSRLRSDDTAVYYCATGYGSSYGYFDYWGQGTLVTVSS VL: DIQMTQSPSSLSASVGDRVTITCRASENIYSYLAWYQQKPGKAPKLLIYTAKTLAEGVPSRFSGSGSGTDFTLTISSLQPEDFATYYCQHQYGPPFTFGQGTKLELK | 3.48 | 0.00277 | 795000 | – | 0.52 | 2720 | 0.03 | 3.22 | 1.93 | 74600 | 5.74 | 98.2 | 0.1 | 59.5 | 1.91 | 97.5 | 0.24 | 2.74 | 82.6 | 14.5 | IC50 [15]: 0.44 nM; TOP blocking (%) [15]: 97.2%; EC50 [12]: 0.3 nM; TOP MFI [12]: 7140 MFI; EC50 [13]: 0.48 nM; TOP OD450 [13]: 1.81 OD450; % Competition [14]: 90.5%
